The record followed here is publication PMC3860269.

For this assay, the target named is in vitro assembled HIV-1 CA–NC complexes bearing the capsid change N74D (HIV-1). The experiment in a line: co-sedimentation.

With “GFP-Nup98 (from UniProt P52948 1-880) (natural protein)”, the fold decrease of binding against wild type CA–NC complexes was 2 fold.
